In US20220195407, “OPTIMIZATION OF ENGINEERED MEGANUCLEASES FOR RECOGNITION SEQUENCES” (Precision BioSciences, Inc., published 2022):
Substitutions are numbered along the chain they refer to.

Tests used:
Assay in all cases: cell_activity; CHO iGFFP reporter
LOX 3-4m.2329 = target: T1, LOX 3-4m.2329 (artificial (I-CreI derived))
T1 chain: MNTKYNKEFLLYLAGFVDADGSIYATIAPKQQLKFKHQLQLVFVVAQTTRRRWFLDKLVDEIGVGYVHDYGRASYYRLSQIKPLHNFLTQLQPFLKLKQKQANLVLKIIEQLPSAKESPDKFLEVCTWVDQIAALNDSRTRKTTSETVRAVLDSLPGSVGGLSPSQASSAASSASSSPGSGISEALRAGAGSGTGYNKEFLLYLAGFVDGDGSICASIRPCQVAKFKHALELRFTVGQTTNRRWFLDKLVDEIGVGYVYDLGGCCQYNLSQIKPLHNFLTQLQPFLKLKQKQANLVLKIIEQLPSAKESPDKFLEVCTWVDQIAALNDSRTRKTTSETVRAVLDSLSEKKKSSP
Excerpt: (§1) A CHO cell reporter system (see WO/2012/167192, FIG. 3) was used to determine whether the engineered meganucleases generated in these studies could recognize and cleave the modified LOX 3-4 recognition sequences in Table 87. To perform the assay, a pair of CHO cell reporter lines were produced, which carried a non-functional Green Fluorescent Protein (GFP) gene expression cassette integrated into the genome of the cell. The GFP gene in each cell line was interrupted by a pair of recognition sequences such that intracellular cleavage of either recognition sequence by a meganuclease would stimulate a homologous recombination event resulting in a functional GFP gene. In both cell lines, one of the recognition sequences was derived from the LOX 3-4 recognition sequence (i.e., those sequences disclosed in Table 87), and the second recognition sequence was specifically recognized by a control meganuclease called “CHO 23/24.” CHO reporter cells comprising a recognition sequence derived from the LOX 3-4 recognition sequence and the CHO 23/24 recognition sequence are referred to herein as “test cells.”
(§2) Novel engineered meganucleases derived from the LOX 3-4x.109 meganuclease were prepared by making amino acid substitutions at one or more positions in the first subunit and one or more positions in the second subunit. These engineered meganucleases were then evaluated for cleavage of the LOX 3-4 recognition sequence modified to have an ATAT center sequence (SEQ ID NO: 200) in the CHO reporter assay according to Example 1.

LOX 3-4m.2330 = target: T2, LOX 3-4m.2330 (artificial (I-CreI derived))
T2 chain: T1 chain with T48K, R50K, Q80E, T239A, N241R, G262R, G263N
Excerpt: as §1, §2

LOX 3-4m.2248 = target: T3, LOX 3-4m.2248 (artificial (I-CreI derived))
T3 chain: T1 chain with A19G, T48H, R50C, G210A, T239H, N241K, G262K, G263A, Q271E
Excerpt: as §1, §2

LOX 3-4m.2313 = target: T4, LOX 3-4m.2313 (artificial (I-CreI derived))
T4 chain: T1 chain with T48A, R50K, T239A, N241K, G263K, C265A, R330P
Excerpt: as §1, §2

LOX 3-4m.1486 = target: T5, LOX 3-4m.1486 (artificial (I-CreI derived))
T5 chain: T1 chain with T48K, R50T, R72T, Q80E, T239K, N241S, G263R, C264I, C265S, Q271E
Excerpt: as §1
as §2, with “ATGA” for “ATAT”, “220)” for “200)”

LOX 3-4m.1500 = target: T6, LOX 3-4m.1500 (artificial (I-CreI derived))
T6 chain: T1 chain with T48K, R72S, A73S, T239S, N241R, G263H, C264V, C265S, R330K
Excerpt: as §1
as §2, with “ATGA” for “ATAT”, “220)” for “200)”

LOX 3-4m.1421 = target: T7, LOX 3-4m.1421 (artificial (I-CreI derived))
T7 chain: T1 chain with T48K, R50T, R139K, T239R, N241I, V250A, G263H, C264I, C265A, R330K
Excerpt: as §1
as §2, with “ATGA” for “ATAT”, “220)” for “200)”

LOX 3-4m.1506 = target: T8, LOX 3-4m.1506 (artificial (I-CreI derived))
T8 chain: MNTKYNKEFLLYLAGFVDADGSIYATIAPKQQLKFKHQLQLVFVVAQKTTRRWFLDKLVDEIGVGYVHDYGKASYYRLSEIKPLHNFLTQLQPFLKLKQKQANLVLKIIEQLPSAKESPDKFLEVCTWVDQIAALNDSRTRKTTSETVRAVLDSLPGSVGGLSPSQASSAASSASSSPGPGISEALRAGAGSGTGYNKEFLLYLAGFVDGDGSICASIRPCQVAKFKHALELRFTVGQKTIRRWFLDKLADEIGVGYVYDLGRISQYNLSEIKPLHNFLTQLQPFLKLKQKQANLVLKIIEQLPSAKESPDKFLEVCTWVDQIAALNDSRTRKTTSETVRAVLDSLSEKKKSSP
Excerpt: as §1
as §2, with “ATGA” for “ATAT”, “220)” for “200)”

LOX 3-4m.1868 = target: T9, LOX 3-4m.1868 (artificial (I-CreI derived))
T9 chain: T8 chain with T50R, K72P, A73T, E80Q, R139K, P180S, I241C, A250V, S265A
Excerpt: as §1
as §2, with “a GCAA” for “an ATAT”, “267)” for “200)”

LOX 3-4m.1875 = target: T10, LOX 3-4m.1875 (artificial (I-CreI derived))
T10 chain: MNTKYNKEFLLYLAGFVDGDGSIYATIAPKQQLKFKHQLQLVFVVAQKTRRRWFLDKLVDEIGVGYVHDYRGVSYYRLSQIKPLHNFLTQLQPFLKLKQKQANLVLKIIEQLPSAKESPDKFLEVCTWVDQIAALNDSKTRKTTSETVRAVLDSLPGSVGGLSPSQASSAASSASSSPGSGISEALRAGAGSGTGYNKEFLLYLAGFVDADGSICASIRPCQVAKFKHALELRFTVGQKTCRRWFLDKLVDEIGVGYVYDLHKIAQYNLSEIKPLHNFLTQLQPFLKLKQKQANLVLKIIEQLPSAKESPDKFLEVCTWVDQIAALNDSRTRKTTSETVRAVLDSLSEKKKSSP
Excerpt: as §1
as §2, with “a GCAA” for “an ATAT”, “267)” for “200)”

LOX 3-4m.1854 = target: T11, LOX 3-4m.1854 (artificial (I-CreI derived))
T11 chain: T1 chain with T48H, G71T, A73V, Q80E, R139K, N241K, G263K, C264V, C265A, R330K
Excerpt: as §1
as §2, with “a GCAA” for “an ATAT”, “267)” for “200)”

LOX 3-4m.1789 = target: T12, LOX 3-4m.1789 (artificial (I-CreI derived))
T12 chain: T10 chain with G19A, R50C, G72Q, Q80E, A210G, H262G, K263T, I264C, A265S
Excerpt: as §1
as §2, with “a GCAA” for “an ATAT”, “267)” for “200)”

B1: LOX 3-4 ATAT (dsDNA)
DNA 1: GTATAGCATATATTATACGAAG
DNA 2: CTTCGTATAATATATGCTATAC
**Q.** What does the source list for B1?
**A.** activity (LOX 3-4m.2329): 14.9 % GFP; activity (LOX 3-4m.2330): 13.9 % GFP; activity (LOX 3-4m.2248): 13.8 % GFP; activity (LOX 3-4m.2313): 13.1 % GFP

B2: LOX 3-4 ATGA (dsDNA)
DNA 1: GTATAGCATATGATATACGAAG
DNA 2: CTTCGTATATCATATGCTATAC
**Q.** B2 was tested. Which activity (LOX 3-4m.1486) did it give?
**A.** 9.23 % GFP

**Q.** What about the activity (LOX 3-4m.1500) of the same binder?
**A.** 3.6 % GFP

**Q.** What about the activity (LOX 3-4m.1421) of the same binder?
**A.** 8.37 % GFP

**Q.** What about the activity (LOX 3-4m.1506) of the same binder?
**A.** 8.2 % GFP

B3: LOX 3-4 GCAA (dsDNA)
DNA 1: GTATAGCATGCAATATACGAAG
DNA 2: CTTCGTATATTGCATGCTATAC
**Q.** Which results are given for B3?
**A.** activity (LOX 3-4m.1868): 7.56 % GFP; activity (LOX 3-4m.1875): 8.14 % GFP; activity (LOX 3-4m.1854): 7.67 % GFP; activity (LOX 3-4m.1789): 8.9 % GFP
